Source: US9938354B2, “Lin28-mediated control of let-7 biogenesis” (Children's Medical Center Corporation, priority 2011, dated 2018)

Experiments:
TUTase = molecular target: T1, TUTase (Homo sapiens, UniProt Q5TAX3); assay: In vitro TUTase activity (uridylation) assay; format: biochemical; conditions: chain terminator; prevents oligo-U tail elongation
T1 construct: Flag; made in house; host or cells: HEK293 / HEK293T cells (transient transfection, anti-Flag M2 purification)
Procedure: In vitro TUTase assays can be employed also. Some of the hit compounds may influence Lin28A-TUTase activity independent of altered expression levels. […] For in vitro uridylation assays, synthetic pre-let-7 RNA is incubated with the affinity-purified proteins in the presence of [α-^32P]-UTP.
A pilot screen is performed on the in vitro assay, using a chemical library that contains a collection of nucleotide analogs. The catalytic activity of the TUTase is inhibited by certain nucleotide analogs, and that the identification of these compounds through HTS will lead to their utility as a novel chemotherapeutic in Lin28A-expressing cancers. There are readily available libraries of such compounds; similar compounds have already been applied in the clinic. […] Then, putative hits from this primary screen are evaluated through secondary screens that include dose curves, in vitro TUTase activity assays, and analyses of let-7 expression by q.RT-PCR on compound-treated cells. […]
Purified proteins were incubated with 4 pmol of unlabelled synthetic RNA (Dharmacon) for 1 hour at 37° C. in a 30 μl reaction mixture containing 100 mM KCl, 20 mM Tris-HCl pH 7.6, 10% Glycerol, 125 nM [α-^32P]UTP, 3.2 mM MgCl2, 40 U RNasin ribonuclease inhibitor (Promega). Products were resolved on 15% denaturing polyacrylamide gels and bands were detected by autoradiography.

pre-let-7g = assay: EMSA of recombinant Lin28A and Lin28B with pre-let-7g; format: binding; conditions: 0.5 nM 5′-end labeled pre-let-7g, without competitor yeast tRNA, estimated, read-out: apparent Kd
Procedure: (§1) Furthermore, Lin28B directly binds and sequesters pri-let-7. To further dissect the mechanism of the Lin28B-mediated let-7 processing block, the relative abilities of recombinant human Lin28A and Lin28B proteins to bind pre-let-7 were compared. (FIG. 7A, 7B and FIG. 8). EMSA was performed with pre-let-7g to analyze the relative binding affinities of the two recombinant proteins. Lin28A and Lin28B have apparent Kds of approximately 0.6 nM and 0.5 nM, respectively (FIG. 7B). Both these estimated Kds are much lower than a previously reported for recombinant mouse Lin28A. This difference is likely due to the omission here of nonspecific yeast tRNA competitor used previously in the binding buffer. Piskounova et al., 2008. […] Collectively, these assays reveal that both Lin28 proteins can directly bind to let-7 precursors with high-affinity in vitro.
(§2) Transformed BL21-CodonPlus® Competent bacteria (Stratagene) were grown to an OD600 nm of 0.4-0.6. […] Band intensities of scanned gels were quantified using ImageJ software and used to calculate percentage of probe bound. […] […] Percent active protein was determined using stoichiometric binding reactions as described in Ryder et al. (2008) Hills equation for specific binding with one site, Y=Bmax*X^h= […]

pri-let-7g = assay: EMSA of recombinant Lin28A and Lin28B with pri-let-7g; format: binding; conditions: in vitro transcribed uniformly labeled pri-let-7g
Procedure: as §1, §2

T1 sequence (Q5TAX3 whole entry): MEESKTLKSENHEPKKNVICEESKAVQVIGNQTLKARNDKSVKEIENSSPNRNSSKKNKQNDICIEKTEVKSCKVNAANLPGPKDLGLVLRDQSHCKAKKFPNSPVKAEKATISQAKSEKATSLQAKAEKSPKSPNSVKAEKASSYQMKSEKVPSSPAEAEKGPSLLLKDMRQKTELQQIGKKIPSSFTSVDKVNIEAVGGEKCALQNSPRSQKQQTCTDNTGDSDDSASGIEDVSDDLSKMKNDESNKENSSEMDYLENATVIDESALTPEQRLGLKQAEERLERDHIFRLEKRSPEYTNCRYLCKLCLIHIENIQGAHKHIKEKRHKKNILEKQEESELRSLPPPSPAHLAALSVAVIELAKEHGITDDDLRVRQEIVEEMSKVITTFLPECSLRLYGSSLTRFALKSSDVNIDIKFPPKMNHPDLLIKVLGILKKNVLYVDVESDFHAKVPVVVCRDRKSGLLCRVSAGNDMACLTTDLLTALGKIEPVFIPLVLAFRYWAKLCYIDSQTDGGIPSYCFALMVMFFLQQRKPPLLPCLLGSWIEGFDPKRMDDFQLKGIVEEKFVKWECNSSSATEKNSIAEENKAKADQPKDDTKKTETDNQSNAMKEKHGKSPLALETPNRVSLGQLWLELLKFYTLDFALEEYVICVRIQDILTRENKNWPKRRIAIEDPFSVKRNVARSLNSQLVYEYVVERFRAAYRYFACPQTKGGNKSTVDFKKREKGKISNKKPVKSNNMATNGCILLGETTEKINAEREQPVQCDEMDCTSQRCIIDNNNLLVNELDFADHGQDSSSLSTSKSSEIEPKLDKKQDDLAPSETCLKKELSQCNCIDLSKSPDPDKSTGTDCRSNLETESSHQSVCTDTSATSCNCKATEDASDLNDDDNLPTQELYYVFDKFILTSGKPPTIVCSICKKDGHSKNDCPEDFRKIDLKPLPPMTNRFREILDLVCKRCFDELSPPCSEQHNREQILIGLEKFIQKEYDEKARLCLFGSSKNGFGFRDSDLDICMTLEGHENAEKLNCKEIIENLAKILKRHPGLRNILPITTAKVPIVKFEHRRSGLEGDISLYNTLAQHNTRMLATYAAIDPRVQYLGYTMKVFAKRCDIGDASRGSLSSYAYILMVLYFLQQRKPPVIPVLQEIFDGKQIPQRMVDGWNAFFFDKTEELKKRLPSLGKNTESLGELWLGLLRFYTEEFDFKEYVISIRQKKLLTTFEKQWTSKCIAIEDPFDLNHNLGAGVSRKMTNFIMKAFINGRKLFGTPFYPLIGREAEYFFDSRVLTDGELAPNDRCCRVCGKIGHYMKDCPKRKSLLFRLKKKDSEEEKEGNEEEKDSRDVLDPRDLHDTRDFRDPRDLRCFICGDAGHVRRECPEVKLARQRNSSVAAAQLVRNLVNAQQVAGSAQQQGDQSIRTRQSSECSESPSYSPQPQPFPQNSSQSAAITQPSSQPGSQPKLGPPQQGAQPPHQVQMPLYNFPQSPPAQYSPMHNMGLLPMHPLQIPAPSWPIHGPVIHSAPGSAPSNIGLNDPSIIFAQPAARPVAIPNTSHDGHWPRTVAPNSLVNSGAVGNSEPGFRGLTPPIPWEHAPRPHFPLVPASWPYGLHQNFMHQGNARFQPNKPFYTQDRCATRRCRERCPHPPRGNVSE

Molecule | TUTase activity in vitro (TUTase) | Kd (pre-let-7g) | binding to pri-let-7g (pri-let-7g)
O=c1ccn([C@H]2CC[C@@H](COP(=O)(O)OP(=O)(O)OP(=O)(O)O)O2)c(=O)[nH]1 [2′,3′-dideoxy-UTP] | effectively inhibits TUTase activity in vitro | – | –
Lin28B: purified recombinant human His-tagged Lin28B RNA-binding protein (protein, left off: small tags and cut ends) MAEGGASKGGGEEPGKLPEPAEEESQVLRGTGHCKWFNVRMGFGFISMINREGSPLDIPVDVFVHQSKLFMEGFRSLKEGEPVEFTFKKSSKGLESIRVTGPGGSPCLGSERRPKGKTLQKRKPKGDRCYNCGGLDHHAKECSLPPQPKKCHYCQSIMHMVANCPHKNVAQPPASSQGRQEAESQPCTSTLPREVGGGHGCTSPPFPQEARAEISERSGRSPQEASSTKSSIAPEEQSKKGPSVQKRKKT | – | ~0.5 nM | able to bind pri-let-7g with similar affinities
Lin28A: purified recombinant human His-tagged Lin28A RNA-binding protein (protein, UniProt Q9H9Z2 2-209, looked up, His tag) Protein lin-28 homolog A: GSVSNQQFAGGCAKAAEEAPEEAPEDAARAADEPQLLHGAGICKWFNVRMGFGFLSMTARAGVALDPPVDVFVHQSKLHMEGFRSLKEGEAVEFTFKKSAKGLESIRVTGPGGVFCIGSERRPKGKSMQKRRSKGDRCYNCGGLDHHAKECKLPPQPKKCHFCQSISHMVASCPLKAQQGPSAQGKPTYFREEEEEIHSPTLLPEAQN | – | ~0.6 nM | able to bind pri-let-7g with similar affinities
